Data as given in publication PMC3575693.

Target: needle protein MxiH (Shigella flexneri) (UniProt P0A223)
Assay: co-purification with isolated needles, Western blot

Sequence of UniProt P0A223 (P0A223 whole entry): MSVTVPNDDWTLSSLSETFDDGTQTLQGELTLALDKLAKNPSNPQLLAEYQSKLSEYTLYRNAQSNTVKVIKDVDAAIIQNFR

IpaB (natural protein)
% IpaB in needles relative to the complemented strain, in the ipaDL99P strain: 100%
% IpaB in needles relative to the complemented strain, in the wild-type strain: 70%
